Consider one molecule from patent US20250206839A1, “METHODS, COMPOSITIONS AND USES FOR SEMA7A MONOCLONAL ANTIBODIES” (THE REGENTS OF THE UNIVERSITY OF COLORADO, A BODY CORPORATE, priority 2022, published 2025).

The subject of one assay is SEMA7A expressing cells. Description: Mammosphere formation and cell death in vitro. It is filed as cell-based. The method, then: In another exemplary method, it was observed that SEMA7A was sufficient to promote stem cell phenotypes, including mammosphere formation, anchorage independent growth and resistance to chemotherapy, which is a property of cancer stem cells. Finally. SEMA7A expressing cells display increased functions and markers of cancer stem cells.
MCF10A and MCF12A cells were labeled with CellTrace Violet (ThermoFisher: #C34557) for 20 min at 37° C., according to the manufacturer's instructions. A sample of labeled cells was analyzed by flow cytometry to determine labeling efficiency and fluorescent intensity at time of seeding. Single cells were seeded at a density of 4000 cells/well in μltra-low attachment 24-well plates to induce mammosphere formation. Cells were cultured in normal culture media for 7 days and were subsequently counted, dissociated enzymatically in Accutase, (Stem Cell Technologies, Vancouver, Canada: #07922), and analyzed by flow cytometry. See flow cytometry methods for detailed information.

Assay [1] deals with MCF10ADCIS GFP human breast cancer cells. Description: DCIS mouse model, tumor growth and invasion. It is filed as in vivo. The following applies: IP every third day from day 21. The method, then: DCIS model: Female SHO mice, aged 6-8 weeks old, are injected with 250,000 MCF10ADCIS GFP human breast cancer cells into both #4 mammary fat pads, then palpated and measured three times a week with digital calipers and tumor visualization is aided by use of the illumatool light source with GFP filter so we can accurately measure tumors. Treatment with SmAb started at day 21 post injection. SmAb treatment is given by IP injection every third day. Weights are taken every treatment day and mice are monitored for weight loss and other health/behavior changes.

The next assay addresses T1, SEMA7A (Homo sapiens, UniProt O75326).
T1 construct: MCF7 cells endogenously express SEMA7A (75 kDa); endogenous in cells; host or cells: MCF7
T1 sequence (O75326 45-648): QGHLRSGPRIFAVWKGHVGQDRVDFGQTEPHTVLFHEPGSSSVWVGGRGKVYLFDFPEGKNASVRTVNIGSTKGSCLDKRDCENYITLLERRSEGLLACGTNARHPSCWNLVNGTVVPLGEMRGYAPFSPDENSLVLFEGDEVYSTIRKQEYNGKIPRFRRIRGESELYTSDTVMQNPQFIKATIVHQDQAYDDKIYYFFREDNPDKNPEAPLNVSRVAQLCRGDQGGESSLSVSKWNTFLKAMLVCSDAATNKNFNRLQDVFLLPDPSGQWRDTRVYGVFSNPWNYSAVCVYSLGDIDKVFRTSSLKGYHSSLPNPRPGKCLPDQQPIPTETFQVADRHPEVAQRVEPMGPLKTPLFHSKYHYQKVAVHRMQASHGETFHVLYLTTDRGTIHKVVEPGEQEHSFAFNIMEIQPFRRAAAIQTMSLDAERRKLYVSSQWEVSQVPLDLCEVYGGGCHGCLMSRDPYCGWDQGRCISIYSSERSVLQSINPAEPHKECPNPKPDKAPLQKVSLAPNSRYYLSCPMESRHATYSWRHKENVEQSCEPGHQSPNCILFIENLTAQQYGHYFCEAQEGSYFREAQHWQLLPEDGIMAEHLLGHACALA
Description: Western blot binding on MCF7 control and SEMA7A OE cell lysates. The following applies: 200 μg/mL antibody. The procedure: In another exemplary method, the ability of an anti-SEMA7A monoclonal antibody to bind to SEMATA was tested. In one exemplary method, CUH1 mAb was validated for binding to MCF7 SEMA7A over expressing cell lysate using Western Blot. Specifically. binding of the CUH1 mAb was detected on lysates from MCF7 control cells and SEMA7A overexpressing (OE) cells using 200 μg/mL of SmAbH1. MCF7 cells endogenously express SEMA7A (75 kDa) but OE cells were engineered to overexpress V5 tagged
MCF7 cells were lysed with RIPA containing EDTA (Thermo Scientific) and spun at 14K for 15 min. The supernatant was then quantitated using a Qubit Assay (Invitrogen) standard protocol and mixed 3:1 with Laemmli Sample Buffer (BioRad) with 2-mercaptoethanol and heated at 70 degrees for 10 min. 100 μg of lysate was loaded onto 4-20% Tris-Glycine gel (BioRad) and transferred to a PVDF membrane (Milipore). The membrane was blocked with 5% Bovine Serum Albumin (BSA) for 3 hours and then probed with 200 μg/ml of CUH1 in 5% BSA overnight at 4 degrees with gentle rocking. The membrane was washed three times 15 minutes with TBS-T and then probed with 10 ng/ml Goat Anti-Mouse IgG HRP (Abcam 97040) in 5% BSA for 1 hour at room temp. The membrane was washed and then incubated with 1:1 mix SuperSignal West Pico (Thermo Scientific) for 4 min at room temp.

Another assay has as its system SEMA7A isoforms. Briefly: Western blot recognition of SEMA7A isoforms. The format is binding.
For a further assay, the system named is TC11 cells. Briefly: Cell viability, crystal violet, 48 h. The format is cell-based, mouse. The conditions noted are these: TC11, 500 nM SmAbH1 vs 8 nM Fulvestrant. The method, then:
(§1) For proliferation assays, cells were plated at 2000 cells per well of a 96-well dish. Four pictures of different regions in each well were taken every four hours for 48 h using an IncuCyte ZOOM (Essen BioScience, Ann Arbor, MI, USA). Percent confluence was determined using the IncuCyte ZOOM software (Essen BioScience). 66cl4 Sema7A DDK cells were plated in a 96-well plate in triplicate at 1,500 cells/well. They sat down over 24 hours and then were treated with 1000 nM IgG control, 10 nM SmAbH1, 100 nM SmAbH1, 200 nM SmAbH1, 500 nM SmAbH1, or 1000 nM SmAbH1. The plate was promptly transferred to the IncuCyte where photos were taken and analyzed every 4 hours for 7 days. For additional treatment studies in MCF7, TC11 and SSM2 cells ([…]) were plated in a 24-well plate in complete media and allowed to sit down over 24 hours. At 24 hours after plating, cells were treated with 500 nM IgG control, 500 nM SmAbH1, 8 nM Fulvestrant or the combination. The plate was incubated at 37 C for 48 hours, then fixed with 10% NBF and stained with crystal violet.

The subject of a further assay is SSM2 cells. Description: Cell viability, crystal violet, 48 h. The format is cell-based, mouse. The following applies: SSM2, 500 nM SmAbH1 vs 8 nM Fulvestrant. The method, then: as §1
A further assay has as its system MCF7 cells. Description: Cell viability, crystal violet, 48 h. The format is cell-based, human. The following applies: MCF7, 500 nM SmAbH1 vs 8 nM Fulvestrant. The procedure:
as §1

B1: SmAbH1: mouse monoclonal antibody against SEMA7A generated using the 10-mer immunizing peptide … (SEQ ID NO: 2) (antibody, V domains shown)
VH: QVKLQESGTVLARPGASVKMSCKASVYSFTSYWMHWVKQRPGQGLEWIGAIYPGNSDTSYNQKFKGKAKLTAVTSASTAYMELSSLTNEDSAVYYCTRGGAPTMITAYYAMDYWGQGTSVTVSS
VL: DIQMTQTTSSLSASLGDRVTISCRASQDISNYLNWYQQKPDGTVKLLIYYTSRLHSGVPSRFSGSGSGTDYSLTISNLEQEDIATYFCQQGNTLPWTFGGGTKLEIKR
With B1, the cell death entry with SEMA7A expressing cells is “induce cell death”. In addition, the mammosphere formation result with SEMA7A expressing cells is reported as “reduce mammosphere formation”. Also, in assay [1], the “tumor growth and invasion of ductal carcinoma in situ (DCIS) lesions” value is “block or inhibit tumor growth and invasion”. Besides, the “binding to SEMA7A in cell lysates” value in the assay with SEMA7A is “successfully bound to both endogenous (75 kDa) and overexpressed (100 kDa) SEMA7A”. Moreover, the “recognition of SEMA7A isoforms” value in the assay with SEMA7A isoforms is given as “recognition of all three isoforms of SEMATA”. Besides, the “cell viability compared to fulvestrant” value in the assay with TC11 cells, in the assay on SSM2 cells and in the assay on MCF7 cells was “more significantly reduced” throughout.
